Source: publication PMC10400651, “Gain-of-function mutant p53 together with ERG proto-oncogene drive prostate cancer by beta-catenin activation and pyrimidine synthesis”

Biological target: p53 WT (UniProt P04637 1-393)
Assay: EMSA; Thermo EMSA kit (20148) protocol; 6% native PAGE; supershift with 1 ug anti-p53 for 1 h at room temperature; recombinant p53 eluted in PBS; buffer, salt and pH
Details: protein: recombinant; tags: untagged after thrombin cleavage of GST; chain copies: 4; label: biotin; blunt

p53 WT, sequence (P04637 whole entry): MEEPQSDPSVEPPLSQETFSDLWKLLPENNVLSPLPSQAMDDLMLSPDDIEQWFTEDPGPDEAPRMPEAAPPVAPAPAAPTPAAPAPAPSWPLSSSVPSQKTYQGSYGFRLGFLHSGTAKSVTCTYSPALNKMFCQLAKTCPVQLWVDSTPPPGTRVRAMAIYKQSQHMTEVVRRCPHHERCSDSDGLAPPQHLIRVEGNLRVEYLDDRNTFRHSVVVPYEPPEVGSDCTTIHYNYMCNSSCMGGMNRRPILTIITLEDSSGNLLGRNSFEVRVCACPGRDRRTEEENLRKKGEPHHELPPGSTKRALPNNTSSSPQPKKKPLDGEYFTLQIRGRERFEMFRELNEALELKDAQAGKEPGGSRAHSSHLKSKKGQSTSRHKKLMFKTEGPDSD

B1: CTNNB1-probe1 (MP53BS) (dsDNA)
DNA 1: GCCCCCTCGCGCCCCGCCCCTTGTC
DNA 2: GACAAGGGGCGGGGCGCGAGGGGGC
  binding result: no binding
